In article PMC10397247:
Each block holds one binder with its values, some of them ahead of it.

Columns and labels:
Core_NNNN-es_KKKE = biological target: T1, Core_NNNN-es_KKKE; experiment: two-hybrid library CCmax; settings: mean of both orientations;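 also: natural log of median RNA to DNA barcode read ratio; higher means stronger binding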
T1 chain: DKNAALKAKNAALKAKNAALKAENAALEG

4H1222-bA = biological target: T2, 4H1222-bA; experiment: two-hybrid library CCNG1;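 also: natural log of median RNA to DNA barcode read ratio; higher means stronger binding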
T2 chain: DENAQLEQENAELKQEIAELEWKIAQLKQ

4H1338-bA = biological target: T3, 4H1338-bA; experiment: two-hybrid library CCNG1;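 also: natural log of median RNA to DNA barcode read ratio; higher means stronger binding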
T3 chain: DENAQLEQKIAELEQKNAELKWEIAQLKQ

4H1348-bA = biological target: T4, 4H1348-bA; experiment: two-hybrid library CCNG1;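 also: natural log of median RNA to DNA barcode read ratio; higher means stronger binding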
T4 chain: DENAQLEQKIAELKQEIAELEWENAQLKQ

4H1359-bA = biological target: T5, 4H1359-bA; experiment: two-hybrid library CCNG1;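 also: natural log of median RNA to DNA barcode read ratio; higher means stronger binding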
T5 chain: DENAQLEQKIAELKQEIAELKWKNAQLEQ

4H1373-bA = biological target: T6, 4H1373-bA; experiment: two-hybrid library CCNG1;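 also: natural log of median RNA to DNA barcode read ratio; higher means stronger binding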
T6 chain: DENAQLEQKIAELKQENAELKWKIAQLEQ

4H1393-bA = biological target: T7, 4H1393-bA; experiment: two-hybrid library CCNG1
T7 chain: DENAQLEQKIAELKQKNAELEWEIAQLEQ

4H1449-bA = biological target: T8, 4H1449-bA; experiment: two-hybrid library CCNG1
T8 chain: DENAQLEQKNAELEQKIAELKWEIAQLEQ

4H1544-bA = biological target: T9, 4H1544-bA; experiment: two-hybrid library CCNG1
T9 chain: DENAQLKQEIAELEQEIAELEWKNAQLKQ

4H1629-bA = biological target: T10, 4H1629-bA; experiment: two-hybrid library CCNG1
T10 chain: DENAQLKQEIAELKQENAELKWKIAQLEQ

4H1710-bA = biological target: T11, 4H1710-bA; experiment: two-hybrid library CCNG1
T11 chain: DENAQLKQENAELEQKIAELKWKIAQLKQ

4H1804-bA = biological target: T12, 4H1804-bA; experiment: two-hybrid library CCNG1
T12 chain: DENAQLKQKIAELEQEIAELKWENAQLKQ

4H1899-bA = biological target: T13, 4H1899-bA; experiment: two-hybrid library CCNG1
T13 chain: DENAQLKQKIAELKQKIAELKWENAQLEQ

4H1985-bA = biological target: T14, 4H1985-bA; experiment: two-hybrid library CCNG1
T14 chain: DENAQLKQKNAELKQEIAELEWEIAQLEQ

4H3129-bA = biological target: T15, 4H3129-bA; experiment: two-hybrid library CCNG1
T15 chain: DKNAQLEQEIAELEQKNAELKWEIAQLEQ

4H3172-bA = biological target: T16, 4H3172-bA; experiment: two-hybrid library CCNG1
T16 chain: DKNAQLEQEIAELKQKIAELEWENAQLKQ

4H3414-bA = biological target: T17, 4H3414-bA; experiment: two-hybrid library CCNG1
T17 chain: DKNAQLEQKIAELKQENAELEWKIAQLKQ

4H3613-bA = biological target: T18, 4H3613-bA; experiment: two-hybrid library CCNG1
T18 chain: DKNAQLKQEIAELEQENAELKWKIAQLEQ

4H3628-bA = biological target: T19, 4H3628-bA; experiment: two-hybrid library CCNG1
T19 chain: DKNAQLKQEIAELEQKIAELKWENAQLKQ

4H3631-bA = biological target: T20, 4H3631-bA; experiment: two-hybrid library CCNG1
T20 chain: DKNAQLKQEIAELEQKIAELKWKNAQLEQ

4H3638-bA = biological target: T21, 4H3638-bA; experiment: two-hybrid library CCNG1
T21 chain: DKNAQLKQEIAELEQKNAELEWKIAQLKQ

4H3817-bA = biological target: T22, 4H3817-bA; experiment: two-hybrid library CCNG1
T22 chain: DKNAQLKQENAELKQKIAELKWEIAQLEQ

4H3858-bA = biological target: T23, 4H3858-bA; experiment: two-hybrid library CCNG1
T23 chain: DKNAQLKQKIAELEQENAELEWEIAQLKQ

4H3974-bA = biological target: T24, 4H3974-bA; experiment: two-hybrid library CCNG1
T24 chain: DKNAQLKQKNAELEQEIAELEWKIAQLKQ

4H570-bA = biological target: T25, 4H570-bA; experiment: two-hybrid library CCNG1
T25 chain: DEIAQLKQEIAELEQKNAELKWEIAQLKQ

4H584-bA = biological target: T26, 4H584-bA; experiment: two-hybrid library CCNG1
T26 chain: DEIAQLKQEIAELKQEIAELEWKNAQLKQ

4H619-bA = biological target: T27, 4H619-bA; experiment: two-hybrid library CCNG1
T27 chain: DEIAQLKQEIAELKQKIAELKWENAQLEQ

4H850-bA = biological target: T28, 4H850-bA; experiment: two-hybrid library CCNG1
T28 chain: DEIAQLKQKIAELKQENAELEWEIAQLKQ

4H906-bA = biological target: T29, 4H906-bA; experiment: two-hybrid library CCNG1
T29 chain: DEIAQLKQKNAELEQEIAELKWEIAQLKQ

Core_NNIN-es_KEKK = biological target: T30, Core_NNIN-es_KEKK; experiment: two-hybrid library CCmax; settings: mean of both orientations
T30 chain: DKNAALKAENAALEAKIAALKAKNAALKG

4H1068-AA = biological target: T31, 4H1068-AA; experiment: two-hybrid library CCmax
T31 chain: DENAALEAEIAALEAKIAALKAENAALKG

4H121-AA = biological target: T32, 4H121-AA; experiment: two-hybrid library CCmax; settings: mean of both orientations
T32 chain: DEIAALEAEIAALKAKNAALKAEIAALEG

4H1350-AA = biological target: T33, 4H1350-AA; experiment: two-hybrid library CCmax; settings: mean of both orientations
T33 chain: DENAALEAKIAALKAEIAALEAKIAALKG

4H1710-AA = biological target: T34, 4H1710-AA; experiment: two-hybrid library CCmax; settings: mean of both orientations
T34 chain: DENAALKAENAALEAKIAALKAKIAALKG

4H1985-AA = biological target: T35, 4H1985-AA; experiment: two-hybrid library CCmax; settings: mean of both orientations
T35 chain: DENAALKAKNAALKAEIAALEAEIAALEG

4H2187-AA = biological target: T36, 4H2187-AA; experiment: two-hybrid library CCmax; settings: mean of both orientations
T36 chain: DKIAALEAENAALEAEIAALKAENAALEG

4H233-AA = biological target: T37, 4H233-AA; experiment: two-hybrid library CCmax; settings: mean of both orientations
T37 chain: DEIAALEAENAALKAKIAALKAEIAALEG

4H2512-AA = biological target: T38, 4H2512-AA; experiment: two-hybrid library CCmax; settings: mean of both orientations
T38 chain: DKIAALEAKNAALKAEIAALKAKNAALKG

4H2646-AA = biological target: T39, 4H2646-AA; experiment: two-hybrid library CCmax; settings: mean of both orientations
T39 chain: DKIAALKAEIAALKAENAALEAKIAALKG

4H2687-AA = biological target: T40, 4H2687-AA; experiment: two-hybrid library CCmax; settings: mean of both orientations
T40 chain: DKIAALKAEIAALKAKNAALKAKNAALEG

4H2705-AA = biological target: T41, 4H2705-AA; experiment: two-hybrid library CCmax; settings: mean of both orientations
T41 chain: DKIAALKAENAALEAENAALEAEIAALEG

4H2758-AA = biological target: T42, 4H2758-AA; experiment: two-hybrid library CCmax; settings: mean of both orientations
T42 chain: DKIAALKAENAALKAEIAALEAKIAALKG

4H278-AA = biological target: T43, 4H278-AA; experiment: two-hybrid library CCmax; settings: mean of both orientations
T43 chain: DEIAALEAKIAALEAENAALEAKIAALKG

4H2873-AA = biological target: T44, 4H2873-AA; experiment: two-hybrid library CCmax; settings: mean of both orientations
T44 chain: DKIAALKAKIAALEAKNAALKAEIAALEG

4H2985-AA = biological target: T45, 4H2985-AA; experiment: two-hybrid library CCmax; settings: mean of both orientations
T45 chain: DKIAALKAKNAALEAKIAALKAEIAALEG

4H3134-AA = biological target: T46, 4H3134-AA; experiment: two-hybrid library CCmax; settings: mean of both orientations
T46 chain: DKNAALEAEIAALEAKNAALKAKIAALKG

4H3409-AA = biological target: T47, 4H3409-AA; experiment: two-hybrid library CCmax; settings: mean of both orientations
T47 chain: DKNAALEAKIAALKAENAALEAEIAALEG

4H3625-AA = biological target: T48, 4H3625-AA; experiment: two-hybrid library CCmax; settings: mean of both orientations
T48 chain: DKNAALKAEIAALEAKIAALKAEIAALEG

4H390-AA = biological target: T49, 4H390-AA; experiment: two-hybrid library CCmax; settings: mean of both orientations
T49 chain: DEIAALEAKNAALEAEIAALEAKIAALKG

4H3940-AA = biological target: T50, 4H3940-AA; experiment: two-hybrid library CCmax; settings: mean of both orientations
T50 chain: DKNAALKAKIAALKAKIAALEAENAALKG

4H510-AA = biological target: T51, 4H510-AA; experiment: two-hybrid library CCmax; settings: mean of both orientations
T51 chain: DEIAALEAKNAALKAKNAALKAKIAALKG

4H775-AA = biological target: T52, 4H775-AA; experiment: two-hybrid library CCmax; settings: mean of both orientations
T52 chain: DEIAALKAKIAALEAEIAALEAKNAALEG

4H816-AA = biological target: T53, 4H816-AA; experiment: two-hybrid library CCmax; settings: mean of both orientations
T53 chain: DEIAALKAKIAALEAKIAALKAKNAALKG

4H87-AA = biological target: T54, 4H87-AA; experiment: two-hybrid library CCmax; settings: mean of both orientations
T54 chain: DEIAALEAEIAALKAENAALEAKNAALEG

- interaction score (Core_NNNN-es_KKKE): 0.962
B1: Core_NNNN-es_EEEK (peptide)
chain: DENAALEAENAALEAENAALEAKNAALKG

- interaction score (Core_NNIN-es_KEKK): 1.32
B3: Core_NNIN-es_EKEE (peptide)
chain: DENAALEAKNAALKAEIAALEAENAALEG

More lines, now with the values behind:

B2: 4H1222-bA (peptide)
chain: DENAQLEQENAELKQEIAELEWKIAQLKQ
- interaction score (4H1222-bA): 0.532
- interaction score (4H1338-bA): 0.202
- interaction score (4H1348-bA): 0.605
- interaction score (4H1359-bA): -0.0139
- interaction score (4H1373-bA): -0.665
- interaction score (4H1393-bA): 0.0501
- interaction score (4H1449-bA): 0.729
- interaction score (4H1544-bA): 0.517
- interaction score (4H1629-bA): -0.826
- interaction score (4H1710-bA): 2.36
- interaction score (4H1804-bA): -0.0181
- interaction score (4H1899-bA): 1.1
- interaction score (4H1985-bA): 1.8
- interaction score (4H3129-bA): -1.85
- interaction score (4H3172-bA): 0.388
- interaction score (4H3414-bA): -0.0927
- interaction score (4H3613-bA): -0.452
- interaction score (4H3628-bA): -0.374
- interaction score (4H3631-bA): 0.222
- interaction score (4H3638-bA): -0.958
- interaction score (4H3817-bA): 1.18
- interaction score (4H3858-bA): -0.31
- interaction score (4H3974-bA): 0.693
- interaction score (4H570-bA): 0.341
- interaction score (4H584-bA): -1.36
- interaction score (4H619-bA): -1.01
- interaction score (4H850-bA): -0.2
- interaction score (4H906-bA): -0.403

B4: 4H1068-AA (peptide)
chain: DENAALEAEIAALEAKIAALKAENAALKG
- interaction score (4H1068-AA): 0.409
- interaction score (4H121-AA): -0.866
- interaction score (4H1350-AA): 0.695
- interaction score (4H1710-AA): -1.11
- interaction score (4H1985-AA): 0.534
- interaction score (4H2187-AA): -1.71
- interaction score (4H233-AA): 0.754
- interaction score (4H2512-AA): -1.06
- interaction score (4H2646-AA): -0.0619
- interaction score (4H2687-AA): 0.562
- interaction score (4H2705-AA): -1.15
- interaction score (4H2758-AA): -1.99
- interaction score (4H278-AA): -0.737
- interaction score (4H2873-AA): -0.197
- interaction score (4H2985-AA): -0.0876
- interaction score (4H3134-AA): -0.167
- interaction score (4H3409-AA): -1.36
- interaction score (4H3625-AA): -0.226
- interaction score (4H390-AA): -0.217
- interaction score (4H3940-AA): 2.05
- interaction score (4H510-AA): -1.05
- interaction score (4H775-AA): -0.238
- interaction score (4H816-AA): 0.372
- interaction score (4H87-AA): -0.863
